Article PMC11960969, “Mdga2 deficiency leads to an aberrant activation of BDNF/TrkB signaling that underlies autism-relevant synaptic and behavioral changes in mice” (PLOS Biology, 2025)

B1: MDGA2-ΔM2: MDGA2 lacking the C-terminal region (aa 834–921) of MAM domain (protein)
chain: PPTVRIVHSGLACNIEEERYSERVYTIREGETLELTCLVTGHPRPQIRWTKTAGSASDRFQDSSVFNETLRITNIQRHQGGRYYCKAENGLGSPAIKSIRVDVYYLDDPVVTVHQSIGEAKEQFYYERTVFLRCVANSNPPVRYSWRRGQEVLLQGSDKGVEIYEPFFTQGETKILKLKNLRPQDYANYSCIASVRNVCNIPDKMVSFRLSNKTASPSIKLLVDDPIVVNPGEAITLVCVTTGGEPAPSLTWVRSFGTLPEKTVLNGGTLTIPAITSDDAGTYSCIANNNVGNPAKKSTNIIVRALKKGRFWITPDPYHKDDNIQIGREVKISCQVEAVPSEELTFSWFKNGRPLRSSERMVITQTDPDVSPGTTNLDIIDLKFTDFGTYTCVASLKGGGISDISIDVNISSSTVPPNLTVPQEKSPLVTREGDTIELQCQVTGKPKPIILWSRADKEVAMPDGSMQMESYDGTLRIVNVSREMSGMYRCQTSQYNGFNVKPREALVQLIVQYPPAVEPAFLEIRQGQDRSVTMSCRVLRAYPIRVLTYEWRLGNKLLRTGQFDSQEYTEYAVKSLSNENYGVYNCSIINEAGAGRCSFLVTGKAYAPEFYYDTYNPVWQNRHRVYSYSLQWTQMNPDAVDRIVAYRLGIRQAGQQRWWEQEIKINGNIQKGELITYNLTELIKPEAYEVRLTPLTKFGEGDSTIRVIKYSAPVNPHLREFHCGFEDGNICLFTQDDTDNFDWTKQSTATRNTKYTPNTGPNADRSGSKEGFYMYIETSRPRLEGEKARLLSPVFSIAPKNPYGPTNTQDLATKNSVD
modifications: left off: GFP, end not stated, kept
notes: MDGA2 lacking the C-terminal region (aa 834–921) of MAM domain
B2: MDGA2-ΔM1: MDGA2 lacking the N-terminal region (aa 746–833) of MAM domain (protein)
chain: PPTVRIVHSGLACNIEEERYSERVYTIREGETLELTCLVTGHPRPQIRWTKTAGSASDRFQDSSVFNETLRITNIQRHQGGRYYCKAENGLGSPAIKSIRVDVYYLDDPVVTVHQSIGEAKEQFYYERTVFLRCVANSNPPVRYSWRRGQEVLLQGSDKGVEIYEPFFTQGETKILKLKNLRPQDYANYSCIASVRNVCNIPDKMVSFRLSNKTASPSIKLLVDDPIVVNPGEAITLVCVTTGGEPAPSLTWVRSFGTLPEKTVLNGGTLTIPAITSDDAGTYSCIANNNVGNPAKKSTNIIVRALKKGRFWITPDPYHKDDNIQIGREVKISCQVEAVPSEELTFSWFKNGRPLRSSERMVITQTDPDVSPGTTNLDIIDLKFTDFGTYTCVASLKGGGISDISIDVNISSSTVPPNLTVPQEKSPLVTREGDTIELQCQVTGKPKPIILWSRADKEVAMPDGSMQMESYDGTLRIVNVSREMSGMYRCQTSQYNGFNVKPREALVQLIVQYPPAVEPAFLEIRQGQDRSVTMSCRVLRAYPIRVLTYEWRLGNKLLRTGQFDSQEYTEYAVKSLSNENYGVYNCSIINEAGAGRCSFLVTGKAYAPEFYYDTYNPVWQNRHRVYSYSLQWTQMNPDAVDRIVAYRLGIRQAGQQRWWEQEIKINGNIQKGELITYNLTELIKPEAYEVRLTPLTKFGEGDSTIRVIKYSAPVNPHLREAYCFSFFYHMYGQHIGVLNVYLRLKGQTTIENPLWSSSGNKGQRWNEAHVNIYPITSFQLIFEGIRGPGIEGDIAIDDVSIAEGECAKQDLATKNSVD
modifications: left off: GFP, end not stated, kept
notes: MDGA2 lacking the N-terminal region (aa 746–833) of MAM domain

Test system: TrkB (TrkB-Flag)
Assay: Co-IP of MDGA2 and its truncations with TrkB-Flag in HEK293T cells
Format: binding, human
Conditions: HEK293T cells co-transfected with TrkB-Flag and GFP-tagged MDGA2 constructs
Procedure: Fig 3 MDGA2 interacts with TrkB and suppresses TrkB activity. (A) Primary hippocampal neurons derived from Mdga2^ +/− (Het) mice and their wild-type (WT) littermates at DIV 7 were treated with different doses of BDNF for 30 min. Equal amounts of protein lysates were subjected to immunoprecipitation (IP) with an anti-TrkB antibody, followed by immunoblotting with an anti-phosphotyrosine (pTyr) antibody or the anti-TrkB antibody. The pTyr levels were quantified by densitometry, normalized to total TrkB levels, and then compared to those of WT controls. n = 3 per group. (B) WT mouse brain lysates were subjected to IP with an anti-MDGA2 antibody and a control IgG, and immunoblotted (IB) for the components indicated. mBDNF, mature BDNF; ImBDNF, immature BDNF. (C) Hippocampal neurons from WT mice at DIV 7 were immunostained with antibodies against MDGA2 (red) and TrkB (green), and then counter-stained with DAPI (blue). Images were acquired by a confocal microscope. Scale bar: 10 μm. (D) Surface plasmon resonance (SPR) analysis of the binding between recombinant MDGA2 protein and recombinant TrkB protein. TrkB was immobilized on a Biacore CM5 chip and tested for its binding with MDGA2 at the concentrations indicated. (E) Computer simulation of the binding mode of TrkB and MDGA2. The predicted binding domain of TrkB (the d5 domain) is highlighted by a red square and labeled in brown. The predicted binding domain of MDGA2 (the MAM domain) is highlighted by a red square and labeled in yellow. […] Immunoprecipitated TrkB levels were quantified by densitometry, normalized to input levels, and compared to respective controls (set to one arbitrary units). n = 3 per group. […] Levels of phosphorylated proteins were quantified by densitometry, normalized to respective total protein levels and compared to controls (set to one arbitrary units). n = 6 per group. […] P-values were determined by two-tailed unpaired Student t-test in (A) and one-way ANOVA with Tukey’s multiple comparisons test in (H, I, J). *p < 0.05, **p < 0.01, ***p < 0.001, ns: not significant. […]

| Molecule | interaction with TrkB (Co-IP) |
| --- | --- |
| B1 | not M2 abolished the interaction |
| B2 | abolished the interaction between MDGA2 and TrkB |
